Target: CO17 B NA (neuraminidase head of B/Colorado/06/2017, B/Victoria-lineage) (influenza B virus B/Colorado/06/2017)
Assay: cryo-EM structure

CO17 B NA (neuraminidase head of B/Colorado/06/2017, B/Victoria-lineage) (domain or fragment)
stoichiometry N: 4

Reference: doi:10.1101/2024.11.26.625467
